{"source": "patent US20180298070A1", "about": "“PEPTIDE COMPOUND” (Takeda Pharmaceutical Company Limited, published 2018)", "key": {"[1]": {"target": "T1, human GIPR (human), P48546", "T1 chain": "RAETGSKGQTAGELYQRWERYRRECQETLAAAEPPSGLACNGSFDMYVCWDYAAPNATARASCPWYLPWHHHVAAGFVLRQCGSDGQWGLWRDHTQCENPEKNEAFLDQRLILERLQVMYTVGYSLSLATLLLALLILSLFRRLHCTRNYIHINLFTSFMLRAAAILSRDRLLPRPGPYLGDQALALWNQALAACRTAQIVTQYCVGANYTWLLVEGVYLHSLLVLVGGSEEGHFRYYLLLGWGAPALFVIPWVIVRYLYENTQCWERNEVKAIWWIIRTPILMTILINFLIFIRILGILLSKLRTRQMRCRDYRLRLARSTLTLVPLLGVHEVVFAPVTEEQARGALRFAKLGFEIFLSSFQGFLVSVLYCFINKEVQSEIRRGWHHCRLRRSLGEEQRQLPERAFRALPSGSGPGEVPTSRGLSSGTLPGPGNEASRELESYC"}, "[2]": {"target": "T2, human GLP-1R (human), P43220", "T2 chain": "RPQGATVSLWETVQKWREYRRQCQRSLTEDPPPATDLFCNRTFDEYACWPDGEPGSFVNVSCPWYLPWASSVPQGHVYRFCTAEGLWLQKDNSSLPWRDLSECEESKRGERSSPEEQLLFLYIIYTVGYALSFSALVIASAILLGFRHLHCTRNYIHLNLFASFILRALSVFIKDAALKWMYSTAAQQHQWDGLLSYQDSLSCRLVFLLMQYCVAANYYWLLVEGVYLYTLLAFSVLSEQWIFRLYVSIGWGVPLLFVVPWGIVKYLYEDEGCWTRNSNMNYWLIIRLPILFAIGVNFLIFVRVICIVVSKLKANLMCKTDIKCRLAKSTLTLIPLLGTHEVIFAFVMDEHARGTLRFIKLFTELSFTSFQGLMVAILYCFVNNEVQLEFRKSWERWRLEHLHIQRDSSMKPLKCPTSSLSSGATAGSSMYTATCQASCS"}, "[3]": {"target": "T1, human GIPR (human), P48546", "assay": "[125I]GIP competition, human GIPR VLP"}, "human GLP-1R [4]": {"target": "human GLP-1R (human, UniProt P43220)", "assay": "cell-based or functional assay"}, "human GLP-1R [5]": {"target": "human GLP-1R (human, UniProt P43220)", "assay": "cell-based or functional assay", "remark": "listed apart in the source"}, "human GIPR": {"target": "T3, human GIPR (human, UniProt P48546)", "T3 sequence": "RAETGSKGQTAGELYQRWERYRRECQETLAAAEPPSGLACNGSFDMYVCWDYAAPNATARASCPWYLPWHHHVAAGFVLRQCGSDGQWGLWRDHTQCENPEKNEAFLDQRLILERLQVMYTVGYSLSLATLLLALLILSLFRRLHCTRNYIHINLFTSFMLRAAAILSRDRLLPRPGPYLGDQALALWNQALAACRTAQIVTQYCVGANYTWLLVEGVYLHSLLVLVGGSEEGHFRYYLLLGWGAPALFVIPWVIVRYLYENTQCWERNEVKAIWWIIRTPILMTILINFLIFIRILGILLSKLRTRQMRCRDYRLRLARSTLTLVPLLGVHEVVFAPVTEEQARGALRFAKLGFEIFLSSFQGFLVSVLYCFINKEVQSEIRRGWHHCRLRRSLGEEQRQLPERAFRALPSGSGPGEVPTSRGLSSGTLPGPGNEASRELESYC", "assay": "[125I]GIP competition, human GIPR VLP", "experimental": "For the measurement of the binding activity to GIPR, [¹²⁵I]GIP (PerkinElmer, Inc.) in a final concentration of 100 pM and a test compound in a specified concentration were mixed to GIPR_VLP in an assay buffer (50 mM HEPES (pH 7.4, WAKO 342-01375), 5 mM EGTA (WAKO 346-01312), 5 mM MgCl₂ (WAKO 136-03995), 0.1% BSA (Merckmillipore 81-066-04) and 0.005% Tween 20 (BioRad 170-6531)) and reacted at room temperature for 2 hours. VLP to which [¹²⁵I ]GIP was bound was trapped in a GF/C glass fiber filter 96-well plate (PerkinElmer 6005274) using a cell harvester and washed with an assay buffer. The GF/C glass fiber filter 96-well plate in which VLP was trapped was dried at 42° C. overnight. Thereafter, MicroScint-O (PerkinElmer 6013611) was added to the GF/C glass fiber filter 96-well plate sealed using a backseal and the plate was sealed using a topseal. The radioactivity of each well was eventually measured using Topcount (PerkinElmer) and the binding activity of the test compound to GIPR was calculated when the [¹²⁵I]GIP binding activity in the presence of GIP in a final concentration of […] was 100% and the [¹²⁵I]GIP binding activity of the wells to which DMSO was added was 0%."}}, "note": "Starred links: 1 amine or outer side, 2 acyl side, 3 side chain; linkers in the order of their positions; H or OH if unused. Non-standard residues stand in square brackets, D forms with d. Groups on a side chain read outwards from the residue. Primed or numbered codes have the meaning given here. No end group written: not given here. *: point of attachment. C20 diacid = O=C(O)CCCCCCCCCCCCCCCCCCC(=O)*; γGlu = O=C(O)[C@H](CCC(=O)[*:2])N[*:1]; NMeY = CN[C@@H](Cc1ccc(O)cc1)C(=O)O; Iva = CC[C@](C)(N)C(=O)O; PEG3′ = not defined here; Aib = CC(C)(N)C(=O)O"}
{"binder": "Y[Aib]EGTFISDYSIAK([PEG(2)-C20 diacid])DRIAQQNFVNW[Iva]LAQRPSSGAPPPS (ends and bridges not checked)", "note": "[Compound 383]", "values": [{"measurement": "Agonist activity (EC50, M)", "setting": "[1]", "result": "4.3e-11", "unit": "M"}, {"measurement": "Agonist activity (EC50, M)", "setting": "[2]", "result": "> 1e-06", "unit": "M"}, {"measurement": "IC50", "setting": "[3]", "result": 10, "unit": "nM"}]}
{"binder": "[NMeY][Aib]EGTFISDYSIALDR[Aib]HQ[Aib]NFVNW[Iva]LAQRPSSGAPPPSR-NH2 (N-terminus assumed; SMILES CC[C@H](C)[C@H](NC(=O)[C@H](CO)NC(=O)[C@H](Cc1ccc(O)cc1)NC(=O)[C@H](CC(=O)O)NC(=O)[C@H](CO)NC(=O)[C@@H](NC(=O)[C@H](Cc1ccccc1)NC(=O)[C@@H](NC(=O)CNC(=O)[C@H](CCC(=O)O)NC(=O)C(C)(C)NC(=O)[C@H](Cc1ccc(O)cc1)NC)[C@@H](C)O)[C@@H](C)CC)C(=O)N[C@@H](C)C(=O)N[C@@H](CC(C)C)C(=O)N[C@@H](CC(=O)O)C(=O)N[C@@H](CCCNC(=N)N)C(=O)NC(C)(C)C(=O)N[C@@H](Cc1c[nH]cn1)C(=O)N[C@@H](CCC(N)=O)C(=O)NC(C)(C)C(=O)N[C@@H](CC(N)=O)C(=O)N[C@@H](Cc1ccccc1)C(=O)N[C@H](C(=O)N[C@@H](CC(N)=O)C(=O)N[C@@H](Cc1c[nH]c2ccccc12)C(=O)N[C@@](C)(CC)C(=O)N[C@@H](CC(C)C)C(=O)N[C@@H](C)C(=O)N[C@@H](CCC(N)=O)C(=O)N[C@@H](CCCNC(=N)N)C(=O)N1CCC[C@H]1C(=O)N[C@@H](CO)C(=O)N[C@@H](CO)C(=O)NCC(=O)N[C@@H](C)C(=O)N1CCC[C@H]1C(=O)N1CCC[C@H]1C(=O)N1CCC[C@H]1C(=O)N[C@@H](CO)C(=O)N[C@@H](CCCNC(=N)N)C(N)=O)C(C)C)", "note": "[Compound 117]", "values": [{"measurement": "Agonist activity (EC50, M)", "setting": "human GLP-1R [4]", "result": "> 1e-06", "unit": "M"}]}
{"binder": "Y[Aib]EGTFISDYSIALDRK([PEG(2)-C20 diacid])AQQNFVNW[Iva]LAQRPSSGAPPPS (ends and bridges not checked)", "note": "[Compound 385]", "values": [{"measurement": "Agonist activity (EC50, M)", "setting": "[1]", "result": "8.3e-11", "unit": "M"}, {"measurement": "Agonist activity (EC50, M)", "setting": "[2]", "result": "> 1e-06", "unit": "M"}, {"measurement": "IC50", "setting": "[3]", "result": 15, "unit": "nM"}]}
{"binder": "Y[Aib]EGTFISDYSK([PEG(2)-C20 diacid])ALDRIAQQNFVNW[Iva]LAQR (ends and bridges not checked)", "note": "[Compound 387]", "values": [{"measurement": "Agonist activity (EC50, M)", "setting": "[1]", "result": "5.9e-11", "unit": "M"}, {"measurement": "Agonist activity (EC50, M)", "setting": "[2]", "result": "> 1e-06", "unit": "M"}, {"measurement": "IC50", "setting": "[3]", "result": 8.2, "unit": "nM"}]}
{"binder": "Y[Aib]EGTVVSLYSK([PEG3′-PEG3′-γGlu-C20 diacid])[Aib]LDRQAQ[Aib]EFVK(Ac)WLLRGGPSSGAPPPS (ends and bridges not checked)", "note": "[Compound 326]", "values": [{"measurement": "IC50", "setting": "[3]", "result": 15, "unit": "nM"}]}
{"binder": "Y[Aib]EGTFISDYSIALDRK([PEG(2)-C20 diacid])AQQNFVNW[Iva]LAQR (ends and bridges not checked)", "note": "[Compound 391]", "values": [{"measurement": "Agonist activity (EC50, M)", "setting": "[1]", "result": "1.1e-10", "unit": "M"}, {"measurement": "Agonist activity (EC50, M)", "setting": "[2]", "result": "> 1e-06", "unit": "M"}, {"measurement": "IC50", "setting": "[3]", "result": 34, "unit": "nM"}]}
{"binder": "YXEGTXISDYSIXXDRXAQXNFVNWXLAQRPSSGAPPPS (MeTyr at 1; Aib at 2, 13, 17, 20; Iva at 6, 26; Lys(Eda-GGGGG-) at 14; C-terminal amide (-NH2))", "note": "[Compound 341]", "values": [{"measurement": "Agonist activity (EC50, M)", "setting": "human GLP-1R [5]", "result": "> 1e-06", "unit": "M"}]}
{"binder": "YXEGTXISDYSIXLDRXAQXNFVNWXLAQRPSSGAPPPS (MeTyr at 1; Aib at 2, 13, 20; Iva at 6, 26; Lys(Oda-GGGGG-) at 17; C-terminal amide (-NH2))", "note": "[Compound 349]", "values": [{"measurement": "Agonist activity (EC50, M)", "setting": "human GLP-1R [5]", "result": "> 1e-06", "unit": "M"}]}
{"binder": "YXEGTXISDYSIXLDRXHQXNFVNWXLAQRPSSGAPPPS (N-terminal methyl (Me-Tyr); Aib at 2, 13, 20; Iva at 6, 26; Lys(Heda-GGGGGG-) at 17; C-terminal NH2)", "note": "[Compound 503]", "values": [{"measurement": "IC50", "setting": "human GIPR", "result": 8, "unit": "nM"}]}
{"binder": "YXEGTXISDYSIXXDRXHQXNFVNWXLAQRPSSGAPPPS (N-terminal methyl (Me-Tyr); Aib at 2, 13, 17, 20; Iva at 6, 26; Lys(Oda-GGGGGG-) at 14; C-terminal NH2)", "note": "[Compound 484]", "values": [{"measurement": "IC50", "setting": "human GIPR", "result": 10, "unit": "nM"}]}
{"binder": "YXEGTXISDYSIXXDRXAQXNFVNWXLAQRPSSGAPPPS (Me-Tyr at 1; Aib at 2, 13, 17, 20; Iva at 6, 26; Lys(Eda-GGGGGG-) at 14; C-terminal amide (-NH2) (as printed for SEQ ID NO: 355 in the 1st table))", "note": "[Compound 342]", "values": [{"measurement": "Agonist activity (EC50, M)", "setting": "human GLP-1R [5]", "result": "> 1e-06", "unit": "M"}]}
{"binder": "YXEGTXISDYSIXXDRXHQXNFVNWXLAQRPSSGAPPPS (N-terminal methyl (Me-Tyr); Aib at 2, 13, 17, 20; Iva at 6, 26; Lys(Eda-GGGGGG-) at 14; C-terminal NH2)", "note": "[Compound 521]", "values": [{"measurement": "IC50", "setting": "human GIPR", "result": 20, "unit": "nM"}]}
